Test results taken from US20240052052A1 (ANTENGENE BIOLOGICS, published 2024).
Residue numbers refer to the chain shown, from its start.

Legend:
human CD24 [1] = target: T1, human CD24 (human, UniProt P25063 27-59, heavily glycosylated, GPI-anchored (as described in the background)); assay: FACS, 5637 cells
T1 construct: whole, on cells; Target of all cell-based FACS assays; also called hCD24; Cluster of differentiation 24
T1 chain (looked up): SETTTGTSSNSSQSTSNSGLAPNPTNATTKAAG
Experimental: (§1) Screening & Expansion: The subcloning plates were screened by Acumen assay and the subclones with good binding ability were expanded to 24-wells for confirmation tests. The specificity and cross-reactivity of these subclones were confirmed with FACs analysis. […] Fluorescent dye-conjugated secondary antibody was used to detect the binding of the primary antibody with the cells. Median fluorescence intensity (MFI) was measured by FACs analysis.

human CD24 [2] = target: T1, human CD24; assay: FACS, MCF7 cells
Experimental: as §1

human CD24 [3] = target: T1, human CD24; assay: FACS, 5637 cells
Experimental: (§2) Sequences of some of antibodies from Table 1 were selected to generate and produce human IgG4 chimeric antibodies. […] The protocol for FACs analysis is described as follows: [0536] a. Digested cells using TrypLE™ Express Enzyme (IX); Centrifuged the harvested cells at 400 g for 5 min and discarding the supernatant. [0537] b. Washed the cells 2 times with cold FACS buffer by centrifuging at 400 g for 5 min and discarding the supernatant. [0538] c. […] Incubate at […] for 1 h. [0539] d. Washed the cells twice by using the condition in step b. Resuspended the cells with 100 μl/well diluted 2nd antibody, incubated at 4 degree for 1 h in the dark. [0540] e. Washed the cells twice by using the condition in step b. Resuspended the cells with 100 μl/well cold FACS buffer. Kept the cells in dark for FACS analysis.

human CD24 [4] = target: T1, human CD24; assay: FACS, MCF7 cells
Experimental: as §2

human CD24 [5] = target: T1, human CD24; assay: FACS, 5637 cells
human CD24 [6] = target: T1, human CD24; assay: FACS, MCF7 cells
human CD24 [7] = target: T1, human CD24; assay: FACS, A549 cells
Experimental: as §2

human CD24 [8] = target: T1, human CD24; assay: FACS, Nalm1 cells
Experimental: as §1

human CD24 [9] = target: T1, human CD24; assay: FACS, H1975 cells
Experimental: as §1

human CD24 [10] = target: T1, human CD24; assay: FACS, Nalm1 cells
Experimental: as §2

human CD24 [11] = target: T1, human CD24; assay: FACS, Nalm1 cells
human CD24 [12] = target: T1, human CD24; assay: FACS, H1975 cells
Experimental: as §2

human CD24 [13] = target: T1, human CD24; assay: FACS, HT-29 cells
Experimental: as §2

human CD24 [14] = target: T1, human CD24; assay: FACS, 293F-hCD24 cells
Experimental: as §1

human CD24 [15] = target: T1, human CD24; assay: FACS, 293F-hCD24 cells
Experimental: as §2

human CD24 [16] = target: T1, human CD24; assay: FACS, MDA-MB-468 cells
Experimental: as §2

human CD24 [17] = target: T1, human CD24; assay: FACS, 293F-hCD24 cells
human CD24 [18] = target: T1, human CD24; assay: FACS, MDA-MB-468 cells
human CD24 [19] = target: T1, human CD24; assay: cell-based or functional assay
human CD24 [20] = target: T1, human CD24; assay: FACS, CHOK1-hCD24 cells
human CD24 [21] = target: T1, human CD24; assay: FACS, CHOK1-hCD24 cells
Experimental: as §2

human CD24 [22] = target: T1, human CD24; assay: flow cytometry, HT-29 and Nalm6 cells
Experimental: Briefly, HT-29 or Nalm6 cells were washed three times using PBS and firstly incubated with humanized variants. After three times washing, secondary antibody was incubated with cells. MFI of the samples was analyzed with Flow Cytometry and cells-based affinity was calculated.

B1: SN3 (antibody, V domains shown)
VH: QVQLKESGPGLVAPSQSLSITCTVSGFSLTSYGVHWVRQPPGKGLEWLGVIWAGGSTNYNSALMSRLSISKDNSKSQVFLKMNSLQTDDTAMYYCAVYYGYLFFAYWGQGTLVTVSA
VL: ENVLTQSPAIMSASPGEKVTMTCSASSSVSYMHWYQQKSTTSPKLWIYDTSKLASGVPGRFSGSGSGNSYSLTISSMEAEDVATYYCFQGSGYPLTFGGGTKLEIK
- FACS MFI (human CD24 [1]): 9400
- FACS MFI (human CD24 [2]): 1080
- EC50 (human CD24 [3]): 2.7 nM
- EC50 (human CD24 [4]): 8 nM
- Max MFI (human CD24 [4]): 761
- EC50 (human CD24 [5]): 5.74 nM
- EC50 (human CD24 [6]): 6.54 nM
- EC50 (human CD24 [7]): 3 nM
- Max MFI (human CD24 [7]): 8820
- FACS MFI (human CD24 [8]): 11800
- FACS MFI (human CD24 [9]): 5210
- EC50 (human CD24 [10]): 3.43 nM
- Max MFI (human CD24 [10]): 48400
- EC50 (human CD24 [11]): 5.08 nM
- EC50 (human CD24 [12]): 8.26 nM
- EC50 (human CD24 [13]): 6.61 nM
- Max MFI (human CD24 [13]): 5900
- FACS MFI (human CD24 [14]): 6560
- EC50 (human CD24 [15]): 3.25 nM
- Max MFI (human CD24 [15]): 34100
- EC50 (human CD24 [16]): 4.2 nM
- FACS MFI (human CD24 [16]): 6690
- Max MFI (human CD24 [16]): 10800
- EC50 (human CD24 [17]): 3.5 nM
- EC50 (human CD24 [18]): 7.37 nM
- EC50 (nM), phagocytosis against HT-29 cells (human CD24 [19]): 2.1 nM
- Max phagocytosis Index (%), phagocytosis against HT-29 cells (human CD24 [19]): 68.2%
- EC50 (human CD24 [20]): 8.67 nM
- EC50 (human CD24 [21]): 3.63 nM
- Max MFI (human CD24 [21]): 29700

B2: 73H5-1G2 (antibody, V domains shown)
VH: QVQLKQSGPGLVQPSQSLSITCTVSGFSLTNYGVHWIRQSPGKGLEWLGVIWRGGSTDYNAAFMSRLSITKDNSKSQVFFQMNSLQAADTAIYYCANNYGYDCFAYWGQGTLVTVSA
VL: DVQITQSPSYLAASPGETITINCRASKSIIKYLAWYQEKPGKTNKLLIYSGSTLQSGIPSRFSGSGSGTDFTLTITSLEPEDFAMYYCQQHNEYPLTFGAGTRLELK
notes: mouse monoclonal antibody
- FACS MFI (human CD24 [1]): 6360
- FACS MFI (human CD24 [2]): 373
- EC50 (human CD24 [3]): 24.6 nM
- Max MFI (human CD24 [3]): 7440
- EC50 (human CD24 [4]): 45.9 nM
- EC50 (human CD24 [7]): 36 nM
- Max MFI (human CD24 [7]): 5700
- FACS MFI (human CD24 [8]): 58500
- FACS MFI (human CD24 [9]): 2200
- EC50 (human CD24 [10]): 33.8 nM
- Max MFI (human CD24 [10]): 58500
- EC50 (human CD24 [12]): 31.3 nM
- EC50 (human CD24 [13]): 40 nM
- Max MFI (human CD24 [13]): 4820
- FACS MFI (human CD24 [14]): 20100
- EC50 (human CD24 [15]): 16.2 nM
- Max MFI (human CD24 [15]): 20100
- EC50 (human CD24 [16]): 28 nM
- FACS MFI (human CD24 [16]): 6400
- EC50 (human CD24 [21]): 23.8 nM
- Max MFI (human CD24 [21]): 19900

B3: 110D4G4 (antibody, V domains shown)
VH: EVQLQQSGPGLVKPGASVKISCRASGYLFTGYYMNWVKQSPEKSLEWIGEINPNTGDPRYDQKFKAKATLTVDRSSSTAYMHLKSLTSEDSAVYFCARRDYGTSLDYWGQGTTLTVTS
VL: B2 VL with I30S, T69S, T76S, R103K
notes: mouse monoclonal antibody; also called mAb-110D4G4
- FACS MFI (human CD24 [1]): 47100
- FACS MFI (human CD24 [2]): 21200
- EC50 (human CD24 [3]): 5.89 nM
- EC50 (human CD24 [4]): 5.2 nM
- EC50 (human CD24 [7]): 2.72 nM
- Max MFI (human CD24 [7]): 18400
- FACS MFI (human CD24 [8]): 76200
- FACS MFI (human CD24 [9]): 24900
- EC50 (human CD24 [10]): 3.27 nM
- Max MFI (human CD24 [10]): 76200
- EC50 (human CD24 [12]): 5.22 nM
- EC50 (human CD24 [13]): 2.92 nM
- Max MFI (human CD24 [13]): 5610
- FACS MFI (human CD24 [14]): 56500
- EC50 (human CD24 [15]): 6.55 nM
- Max MFI (human CD24 [15]): 56500
- EC50 (human CD24 [16]): 12.2 nM
- FACS MFI (human CD24 [16]): 52800
- EC50 (human CD24 [21]): 1.52 nM
- Max MFI (human CD24 [21]): 28900

B4: 81A1F8-VH-11/VL-21 (antibody, V domains shown)
VH: QVQLVQSGAEVKKPGASVKVSCKASGYLFTGYYMNWVRQAPGQGLEWMGEINPNTGDTNNNQKFKARVTMTVDRSISTAYMELSRLRSDDTAVYYCVRRDYGTSLDYWGQGTLVTVSS
VL: DVQITQSPSFLSASVGDRVTITCRASKSINKYLAWYQQKPGKAPKLLIHSGSTLQSGVPSRFSGSRSGTEFTLTISSLQPEDFATYYCQQHNEYPITFGQGTKLEIK
notes: humanized antibody based on 81A1F8; also called 81A1F8-1121
- binding result (human CD24 [22]): binds

B5: 81A1F8-VH-11/VL-41 (antibody, V domains shown)
VH: B4 VH
VL: B4 VL with F10T, E81D
notes: humanized antibody based on 81A1F8
- binding result (human CD24 [22]): binds

B6: 81A1F8-VH-21/VL-41 (antibody, V domains shown)
VH: B4 VH with I76T, R85S, D89E
VL: B4 VL with F10T, E81D
notes: humanized antibody based on 81A1F8; also called 81A1F8-2141
- binding result (human CD24 [22]): binds

B7: 81A1F8-VH-21/VL-21 (antibody, V domains shown)
VH: B4 VH with I76T, R85S, D89E
VL: B4 VL
notes: humanized antibody based on 81A1F8; also called 81A1F8-2121
- binding result (human CD24 [22]): binds
